Test results published in US20190062399A1.

Biological target: B7-1Ig (CD80-Ig fusion protein) (UniProt P33681)
Assay: SPR kinetics (Biacore), 75-200 nM analyte over B7-1Ig chip (694 RU)

Sequence of UniProt P33681 (P33681 35-242 limits assumed): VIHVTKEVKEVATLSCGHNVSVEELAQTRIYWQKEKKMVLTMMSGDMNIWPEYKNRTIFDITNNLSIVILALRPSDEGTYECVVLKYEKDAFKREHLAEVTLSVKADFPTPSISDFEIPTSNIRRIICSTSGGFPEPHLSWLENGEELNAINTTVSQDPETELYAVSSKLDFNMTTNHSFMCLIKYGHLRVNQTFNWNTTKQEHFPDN
Sequence of Protein A eluate of the HIC cleaning peak (mixture of all CTLA4-Ig species) (chain): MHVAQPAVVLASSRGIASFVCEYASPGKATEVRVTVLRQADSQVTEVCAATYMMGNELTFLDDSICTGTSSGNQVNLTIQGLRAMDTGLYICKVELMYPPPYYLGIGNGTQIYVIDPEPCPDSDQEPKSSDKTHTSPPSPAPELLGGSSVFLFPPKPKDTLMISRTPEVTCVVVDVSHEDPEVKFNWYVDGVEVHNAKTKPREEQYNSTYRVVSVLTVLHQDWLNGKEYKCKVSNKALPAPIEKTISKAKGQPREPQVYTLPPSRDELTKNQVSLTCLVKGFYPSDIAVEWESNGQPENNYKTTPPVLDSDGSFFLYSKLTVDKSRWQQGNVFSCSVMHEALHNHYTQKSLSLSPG

Question: “Protein A eluate of the HIC cleaning peak (mixture of all CTLA4-Ig species)” was tested. Which Ka did it give?
Answer: 3.87e+07 M⁻¹

Question: What about the Kd of the same substance?
Answer: 25.8 nM

Question: And the koff?
Answer: 0.00973 s⁻¹

Question: What about the kon of the same substance?
Answer: 377000 M⁻¹ s⁻¹
